System: PY79 spores
Assay type: physicochemical, B. subtilis

listeriolysin from Listeria monocytogenes: immunogen shown to bind to the spore
binding of other immunogens to the spore: can bind to the spore in a pH-dependant manner

From patent US8673311B2 (priority 2009, dated 2014)
